Substrate in series [1]: CCCCCCCCCCCCCCC[C@@H](O)[C@H](CO)NC(=O)CCCCCCCCCCCC
Kind of series: LC-MS/MS of C13-Cerd7 formed; Hanes-Woolf plot. The class given is biochemical, Homo sapiens. As to conditions: homogenate of transfected KO-DES-HEK (80 μg, 30 min) plus 100 μg KO-DES-HEK homogenate, 0.2 M Tris/HCl pH 7, 0.2% Triton X-100, 1 mM NADPH, 37°C, deuterated substrate. From the text:
LC-MS/MS of C13-Cerd7 formed; Hanes-Woolf plot on DEGS2

Substrate in series [2]: CCCCCCCCCCCCCCC[C@@H](O)[C@H](CO)NC(=O)CCCCCCCCCCCC
Kind of series: LC-MS/MS of C13-Cerd7 formed; Hanes-Woolf plot. The class given is biochemical, Homo sapiens. As to conditions: 0.2 M Tris/HCl pH 7, 0.2% Triton X-100, 1 mM NADPH, 37°C, deuterated substrate. The text has this:
LC-MS/MS of C13-Cerd7 formed; Hanes-Woolf plot on DEGS1

[3] abbreviates: homogenate of transfected KO-DES-HEK (80 μg, 30 min) plus 100 μg KO-DES-HEK homogenate.

As a reminder, the Km is the concentration of substrate that gives half-maximal velocity.

Where a chain is given by its changes, count along the chain named. Names may count otherwise.

B1: DEGS2 (Homo sapiens) (protein)
chain: GNSASRSDFEWVYTDQPHTQRRKEILAKYPAIKALMRPDPRLKWAVLVLVLVQMLACWLVRGLAWRWLLFWAYAFGGCVNHSLTLAIHDISHNAAFGTGRAARNRWLAVFANLPVGVPYAASFKKYHVDHHRYLGGDGLDVDVPTRLEGWFFCTPARKLLWLVLQPFFYSLRPLCVHPKAVTRMEVLNTLVQLAADLAIFALWGLKPVVYLLASSFLGLGLHPISGHFVAEHYMFLKGHETYSYYGPLNWITFNVGYHVEHHDFPSIPGYNLPLVRKIAPEYYDHLPQHHSWVKVLWDFVFEDSLGPYARVKRVYRLAKDGL
notes: full-length cDNA (from colon mucosa RNA) in pcDNA3, transfected into DEGS1-knockout HEK-293T (KO-DES-HEK); cell homogenate with Triton X-100
As to B1, the Km in series [1] turned out to be 15.31 µM.

B2: DEGS1 (Homo sapiens) (protein)
chain: GSRVSREDFEWVYTDQPHADRRREILAKYPEIKSLMKPDPNLIWIIIMMVLTQLGAFYIVKDLDWKWVIFGAYAFGSCINHSMTLAIHEIAHNAAFGNCKAMWNRWFGMFANLPIGIPYSISFKRYHMDHHRYLGADGVDVDIPTDFEGWFFCTAFRKFIWVILQPLFYAFRPLFINPKPITYLEVINTVAQVTFDILIYYFLGIKSLVYMLAASLLGLGLHPISGHFIAEHYMFLKGHETYSYYGPLNLLTFNVGYHNEHHDFPNIPGKSLPLVRKIAAEYYDNLPHYNSWIKVLYDFVMDDTISPYSRMKRHQKGEMVLE
notes: full-length cDNA (from Hep3B RNA) in pcDNA3, untagged, transfected into DEGS1-knockout HEK-293T (KO-DES-HEK); cell homogenate with Triton X-100
As to B2, the Km in series [2] (homogenate of transfected KO-DES-HEK (40 μg, 10 min) plus 100 μg KO-DES-HEK homogenate) amounted to 2.41 µM.

B3: DEGS1 (Homo sapiens; L175Q) (protein)
chain: B2 chain with L174Q
notes: as for B2
For the protein B3, the Km in series [2] (setting [3]) was found to be 5.99 µM.

B4: DEGS1 (Homo sapiens; N189D) (protein)
chain: B2 chain with N188D
notes: as for B2
B4: in series [2] (setting [3]), the Km is 2.75 µM.

B5: DEGS1 (Homo sapiens; A280V) (protein)
chain: B2 chain with A279V
notes: as for B2
On to B5, for which the Km in series [2] (setting [3]) was 3.29 µM.

B6: DEGS1 (Homo sapiens; N255S) (protein)
chain: B2 chain with N254S
notes: as for B2
With B6, the Km in series [2] (setting [3]) was 4.34 µM.

Values taken from paper PMC10940770, “Loss of function and reduced levels of sphingolipid desaturase DEGS1 variants are both relevant in disease mechanism” (Journal of Lipid Research, 2024).
